Measurements published in publication PMC8072677.

Target: CCR7-EGFP (human CCR7 fused to EGFP) (human) (UniProt P32248)
Sequence of UniProt P32248 (P32248 25-378): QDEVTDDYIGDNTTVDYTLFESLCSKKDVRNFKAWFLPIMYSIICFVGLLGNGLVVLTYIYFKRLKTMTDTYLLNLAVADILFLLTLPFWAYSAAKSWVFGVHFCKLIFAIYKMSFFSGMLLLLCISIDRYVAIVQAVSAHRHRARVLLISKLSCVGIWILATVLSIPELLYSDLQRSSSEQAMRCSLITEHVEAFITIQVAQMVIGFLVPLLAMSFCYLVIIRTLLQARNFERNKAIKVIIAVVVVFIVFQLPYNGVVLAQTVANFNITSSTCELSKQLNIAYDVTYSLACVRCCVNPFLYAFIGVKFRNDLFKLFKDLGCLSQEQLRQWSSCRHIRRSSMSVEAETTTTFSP

Transwell migration of 300-19 pre-B cells stably expressing CCR7 towards graded concentrations of chemokine, 3 h; concentration of maximal migration: 50 nM
Substance: CCL19 (recombinant untagged, native mature human CCL19) (from UniProt Q99731 22-98) (ligand)
